# Data: the DeepSol protein solubility set
# Assay: soluble on expression in E. coli; label from the status in PepcDB or PDB records
row,Sequence,soluble on expression in E. coli
1,MTAPRYPRDMIGYGATPPNANWPGNARIAVQIVLNYEEGGENNILHGDAASEAFLSEIVGAAPWPGQRHWNMETIYEYGARAGFWRLHRLMRDLPVTVYGVATALARSPDQVAAMKSAGWEIASHGLKWVEHKDMPEEEERAQIAEAIRLHTEVTGSRPRGWYTGRCSMNTVRLASEAGIDYIADTYDDDLPYWKRIDGRDQLIVPYTLDCNDMRFATPQGFNSGDQFFAYLKDSFDALYAEGGEGAPKMLSIGLHCRLIGRPGRVMALKRFLDYARGHEDVWFATRLQIAEHWVREHPPVARTRPSEMPKADFVAAYGGIFEHSPWIAERAHGLELGPAHDTAGGLHNALCRMFRSASAEERLGVLTAHPDLAGKLAQAKRLTAESTSEQASAGLDALTDEERTTFTRLNTEYVARFGFPFIIAVRDHDKASILAAFQRRIGNDRETEFAEACRQVERIAEFRLRDVLPSLEHHHHHH,soluble
2,MTINASNSATKKDKPAKYTMIKQYICEHIESGEWPQNAKVPSENELTQQFDVSRMTARRALQELTEQGILVRSQGAGTFVATFKSQSSLLEIRNISDEISDRGHQHKAKQLLLNSTAVTDEIAILLNLKNNEDVFYSEILHYENDDAIQLEQRFVNVSLVPDYLLQNFTQITPHEYLSSVAPLTEATHEIEAILASDEICQQLDIQSTTPCLQVKRRTWSKQGVVSVAILTSPGDKYRLGSHLKF,not soluble
3,MAQDIKNEEVEEVQEEEVVKTAEETTPEKSELDLANERADEFENKYLRAHAEMQNIQRRANEERQNLQRYRSQDLAKAILPSLDNLERALAVEGLTDDVKKGLGMVQESLIHALKE,not soluble
4,MGSSHHHHHHSSGRENLYFQGMRHKIRLIDFILLRFIEERMKVARDVAKEKKKTDSPIVIRDIEEQKIKEILDRTDLNPVRMRRIFEEIMKLAKEEEYRLLGISKTVAVLGPMGSFSDEMAMKLIGSRIPLKYCSTTDEIIEMVEKGEVDYGIVPIENSTYGTVIPVLDALLNHEVEVFGEAKLEIHHCLVAKKKLDLKEIKRIYSHPQAISQSLGFINTYLSHAEIRYTSSTSDAVNLLDDESAAIMSESAAKMYGLLILRRSIQDLKEKNITRFYIIRRKTGKMEGKYTSLFFGVQDRPGSLKAVLDIFASRGINLRKLESRPARTFLGDYVFFVEVEAPLKEEDIRDLERVTAFYKIIGVFDEVEELDVFK,soluble
5,MSLAGAVALSLFDELDVVFGPAALADALFYRHSPALRFELEGGKTYIAQFLQAVDRARTVLNVAFAGMEAVTAVLGVWGDDPPAQLWATAEAALHELGIKLPAPELSASELPTPETRVLHGEEDTQVLFAFTLSTARLPELLWGSLAADLGIFPQLRGRLWLAAPELGLLACPYDSRGMDMIGPNTARLAQLYHQFGDWLLDHDRARMAEMLSPGSKEGHHHHHH,soluble
6,MQDLSFSTIENHLGPAKDRFFGDGFKHVEYSARHVNLTESEANASISLSYPANWSKKNDSGELIPHLSSIDALTISINLSQDILLNRFKSIDHCWVRRISIRAGKKPEEDLRNINAKITKESQGLDSQGDTNLIFGGNVGTMTVQLEFIIPAAHEVDTIKDSTEKNCYSLHFKNRTQFIDDIIFYSPLNAISKLFVANDNEPHFLPGGIEANYPNIINPVDSLVSHAQIAQALLYKLDGLTRGESNTLWMRNLNIIAENPAKRRAATRLLVTELKRANIVSLKGENWRVAEVAGHMNGITFSSSVAHLLPL,not soluble
7,MRQHAAPCTQLITWSIEMDNALDFLLEQAQESEDKAVLALSKARSELDSYYHQLRQIEQYRLEYCQQLVERGKSGLTASQYGHLNRFLTQLDETLAKQKSAEQHFRLQVENCEQHWMNMRQKRKSYQWLMEKKQTERQLLQEKREQKQMDEFSTLMFNRRRLSS,not soluble
8,MGSDKIHHHHHHMVVASVVLWGKHVGAVLWNYDKGYATFEFEAGFLKSGLDVAPLTMPLANVSKGEIFQFAQLPKETFHGLPGLLSDALPDRFGNQLIDLWLASQGRDKASMSPVERLCYLGTRGMGALEFEPTVRNEKEPSKGLEIGALVELSKKALSMKASLDSHFSKEDAETFADIIKVGTSAGGARAKAVIAYNEQTGEVRSGQLHSPAGFEHWLIKFDGVTNEQLGDPKGYGRIEYAYYKMAIDADIIMMPSLLLEEGGRAHFMTKRFDRIVNNEKLHMQTLCGLCHFDYNNPEAYAYEQAFQAMRQLRLPYTDAEQLYIRMVFNVVARNQDDHTKNISFLMDKTGNWSLSPAYDVSYAYNPENKWIAKHQLAVNGKRENIMREDLLSVAKQMNIKKPKEIIEKITAVVSNWEGYAQEAGVPKNQITALGKTHLLKM,not soluble
9,MSNDFTQAQAPPWRYGFLNLMRRVDVQLCTVPAGNTWQPRMEKFRLGQTPALTFAPREIASVGWQEGRLHISLYSLVLWGPNGPLPLHYTELARNRTESRR,not soluble
10,MDIIERITKLKNEKNAVILAHNYQPEEIQKIADIIGDSLELCIAARDTDADVIVFCGVDFMAETAKVLNSGKKVLIPEIIETDCPMAHQLPPEIILEAKKKNPDAKVVIYVNTLASAKALADATCTSANADKVVNSFEEDEILFGPDNNLGYFVSKRSNKKIIPMPEGGHCYVHKMFTLDDAKAVKEKYPNAELLIHPESDPKLQETADYVMSTGGMVKHVLNSECSEFIIGTECDMISRLKIELEKAGKSKKLIPLRTDAICKSMKNITLEKIEKCLLEEKHEIMLDEKIIENARKAIERMLSILEHHHHHH,not soluble
11,MGSDKIHHHHHHMNIIKSFNSTIDYLETVLDDEIDEKKVTRISGYSYSMFSRLFSILTEMTLSEYLRSRRLTEAAIILRDTDEKIIDVAFKFGYESSDSFGTAFKNFHGFTPSEVRIGKPFKLVSRVQLALSVRGGRSMNIRIQKKKAFTVAGVNQQNINSSICASLWQKLFSKVSHEEMLNLGTGEVVGVCHDILSLDNHDVLDSNTINYMAGYIVTDVDKARSMGLDILEIGETEYAVVELTGSVPECIHNGWKYAMEVFFPEHGYVHSGKPDFEYYYEGDMYSKDYKMELWIPVCKS,not soluble
12,MNTLLLDKGEQQVHLNLKYANRHGLIAGATGTGKTVSLMSLAEGFSRQGVPVFITDIKGDISGLGVAGTPNDKLLQRAAEIGVEGYQTEANPVVFWDLAGIQGHPLRTTVSEMGPTLLGRILELNDTQSSILDIVFQLADDQGLLLLDLDDLRAMLNLVADERKDISAKYGLISAQSLAAIQRSVLGLERDGGKDFFGEPALQLEDLMRTNLQGRGIINLLAANKLILTPNLYSSFLLWLLSELFENLPEVGDLDKPKLVFFIDEAHLLFEGCPASLLKRIEQIMRLIRSKGVGVYFCSQFPDDIPNEILGQLGNRIQHALRAYTPRDQKAVKTAAETFVSNPKLVVSEVISQLAVGEALVSTLAEKGVPTMVERTLIAPPRCRMGPANPEELTAIRALSPIGGKYDTLINRESAYERLNQRHTDETNGVNTAQPAANEAEQGWLSELIFGNKRRQGLAETLSKQAARTVGNQLGKQILRGLLGGILGKSTRR,not soluble
13,MKDRYLIIDGYNMIGQSQELSRIAQDNLEEAREQLLIAIANYNAVIADEVVCVFDAYEQSGAPTEYMYHGVKTIFTKEKETADSYIERYVYDLYDKHTRHITVVTSDMSEQHAIFGAGAYRVSSREMWRDLRENEISVSKKLDGFNEQKPRTRIELSNEILEEFEKLRRGDNHLEHHHHHH,not soluble
14,MSLEKLTVSDSKKLFHEQFPYVIPGLYKRIVDEMLVELNLLNHQNEFIQDDLFCVGLTETFKELTKGYKPEEHLRVLFESLCNSSNFEPKKIKEASKKTLEVYKDKSLKEISILLKQKSDSNLYSSRIMNLGIYLIIANATDFKDIKDPEKNKIISDIINKLNLSFNKAEKDIGIYKSSILKMEQAKELLQEAKIKDKKEKEGHHHHHH,soluble
15,MSLEQVEILRKFIQRVQAMKSPDHNGEDNFARDFMRLRRLSTKYRTEKIYPTATGEKEENVKKNRYKDILPFDHSRVKLTLKTPSQDSDYINANFIKGVYGPKAYVATQGPLANTVIDFWRMIWEYNVVIIVMACREFEMGRKKCERYWPLYGEDPITFAPFKISCEDEQARTDYFIRTLLLEFQNESRRLYQFHYVNWPDHDVPSSFDSILDMISLMRKYQEHEDVPICIHCSAGCGRTGAICAIDYTWNLLKAGKIPEEFNVFNLIQEMRTQRHSAVQTKEQYELVHRAIAQLFEKQLQLYEIHGAQKIADGVNEINTENEGHHHHHH,soluble
